Results: article PMC4731787, “Structural basis for the recognition of two consecutive mutually interacting DPF motifs by the SGIP1 μ homology domain” (Scientific Reports, 2016)

T1: SGIP1 µ homology domain (µHD), residues 552 to 828 (human, UniProt Q9BQI5-1 552-828)
T1 construct: pGEX-6P-1 construct cut with 3C protease; also called SGIP1 µHD; human SGIP1 µHD (aa552–828); source: E. coli BL21-Gold (DE3) or Rosetta2, purified (Glutathione Sepharose 4B, 3C protease cleavage, Superdex 200)
T1 sequence (looked up): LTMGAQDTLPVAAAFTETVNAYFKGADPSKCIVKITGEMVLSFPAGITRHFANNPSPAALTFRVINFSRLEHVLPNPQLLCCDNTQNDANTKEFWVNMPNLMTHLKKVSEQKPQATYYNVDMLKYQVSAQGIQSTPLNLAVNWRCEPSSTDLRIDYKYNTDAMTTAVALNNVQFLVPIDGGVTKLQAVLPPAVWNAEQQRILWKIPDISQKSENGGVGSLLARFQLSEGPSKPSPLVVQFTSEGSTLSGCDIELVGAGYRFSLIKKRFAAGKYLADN

T2: FCHo1 µ homology domain (µHD), residues 623 to 889 (human, UniProt O14526-1 623-889)
T2 construct: also called FCHo1 µHD; human FCHo1 µHD (aa623–889); source: E. coli, expressed and purified in the same manner as the SGIP1 µHD
T2 sequence (looked up): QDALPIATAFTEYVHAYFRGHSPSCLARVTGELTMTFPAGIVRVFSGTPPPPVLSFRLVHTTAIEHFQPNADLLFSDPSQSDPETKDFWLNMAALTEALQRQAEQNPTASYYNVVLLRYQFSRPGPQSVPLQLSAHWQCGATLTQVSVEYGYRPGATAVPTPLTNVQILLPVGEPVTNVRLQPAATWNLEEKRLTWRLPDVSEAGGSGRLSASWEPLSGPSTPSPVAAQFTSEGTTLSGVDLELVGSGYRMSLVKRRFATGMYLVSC

T3: SGIP1 μ homology domain (residues 552 to 828) (human, UniProt Q9BQI5-1 552-828)
T3 construct: A SeMet-substituted form (E. coli B834(DE3)) was used only for the structure of the domain alone; also called SGIP1 μHD; μHD; source: E. coli BL21-Gold (DE3) or Rosetta2, purified (Glutathione Sepharose, 3C protease cleavage on the column, Superdex 200)
T3 sequence (looked up): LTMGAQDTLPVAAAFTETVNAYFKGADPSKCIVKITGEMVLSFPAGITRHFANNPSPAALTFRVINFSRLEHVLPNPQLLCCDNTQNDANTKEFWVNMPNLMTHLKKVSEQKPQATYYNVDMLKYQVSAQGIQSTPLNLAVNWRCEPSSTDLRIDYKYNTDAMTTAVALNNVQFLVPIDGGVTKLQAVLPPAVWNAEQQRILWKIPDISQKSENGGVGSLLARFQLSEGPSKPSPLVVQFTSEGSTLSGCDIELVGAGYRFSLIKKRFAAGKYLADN


What was measured:
[1] = molecular target: T1, SGIP1 µ homology domain (µHD), residues …; assay: ITC; µHD, µHD mutant or α-adaptin appendage domain in the sample cell, titrated with the Eps15 fragment or peptide; 50 mM Tris-HCl (pH 8.0), 50 mM NaCl, 25 °C; VP-ITC; two data sets fitted globally (NITPIC, SEDPHAT); single-site model; conditions: both partners purified
[2] = molecular target: T2, FCHo1 µ homology domain (µHD), residues …; assay: as above; conditions: both partners purified
[3] = molecular target: appendage domain of human α-adaptin, residues 711 to 955 (human) (UniProt O95782); assay: as above
[4] = molecular target: T3, SGIP1 μ homology domain (residues 552 …); assay: ITC; VP-ITC, 25 °C, 50 mM Tris-HCl pH 8.0, 50 mM NaCl; for the majority the μHD (SGIP1, its mutants or FCHo1) in the cell, titrated with Eps15 fragments or peptides, for others the reverse (Supplementary Table 2); repeated twice, global fit with SEDPHAT, single-site or two-site model; conditions: both partners purified

| Binder | Kd [3] [nM] | stoichiometry N [3] | further results |
| --- | --- | --- | --- |
| Ac-YDPFGGDPFKGSDPFA-NH2 (artificial N-terminal Tyr; source: synthetic peptide (Eurofins Genomics)) [Eps15-640–654] | – | – | Kd [1]: 2900 nM; stoichiometry N [1]: 0.66; stoichiometry N [2]: 0.64 |
| Eps15-661–720 (domain or fragment) GPLGSYQSTDPFATSSTDPFSAANNSSITSVETLKHNDPFAPGGTVVAASDSATDPFASVFGNESF | 270 | 0.47 | – |
| Eps15-661–790 (domain or fragment) GPLGSYQSTDPFATSSTDPFSAANNSSITSVETLKHNDPFAPGGTVVAASDSATDPFASVFGNESFGGGFADFSTLSKVNNEDPFRSATSSSVSNVVITKNVFEETSVKSEDEPPALPPKIGTPTRPCPLPPGKRSW | 690 | 1.19 | – |
| DFFQSDPFVGSDPFKDDPFGKIDPFGGDPFK (domain or fragment, human, UniProt P42566-1 618-648, looked up, source: E. coli, purified in the same manner as for the SGIP1 μHD) [Eps15-618–648] | – | – | Kd [4]: ~400 nM |
